For this test, the target named is thrombin.

Inhibition of the enzymatic activity of thrombin on a chromogenic substrate (Vmax against the reaction without inhibitor), IC50 data for 1 substance are collected here from paper PMC7901972.

In turn, recombinant AsKunitz (natural protein) returned an inhibition of the enzymatic activity of thrombin on a chromogenic substrate (Vmax against the reaction without inhibitor), IC50 of 0.65 µM.
